Reference: patent publication US20240279318A1 (NANJING LEGEND BIOTECH, published 2024)
Changes are numbered by the printed parent chain.

B1: AS170036 VL1VH1 HP58V (scFv)
scFv: QSALTQPRSVSGSPGQSVTISCAGTSSDVGSENYVSWYQQHPGKAPKLMIYQVNKRASGVPDRFSGSKSGNTASLTISGLQAEDEADYYCASYRSSDHNIVFGGGTKLTVLGGGGSGGGGSGGGGSEVQLVESGGGLVQPGGSLRLSCAASGFTFSSYAMSWVRQAPGKGLEWVSTINSGTGSVYYADSVKGRFTISRDNSKNTLYLQMNSLRAEDTAVYYCAKNFFDGSWFLGPPAMDYWGQGTLVTVSSHHHHHH
B2: AS170036 VL1VH1 HS53A (scFv)
scFv: B1 scFv with S179A, V184P
B3: AS170036 VL1VH1 HP58R (scFv)
scFv: B1 scFv with V184R
B4: LD97L (scFv)
scFv: B1 scFv with D97L, V184P
notes: AS170036 VL1VH1 scFv mutein
B5: AS170036 VL1VH1 HP110N (scFv)
scFv: B1 scFv with V184P, P236N
B6: LE32A (scFv)
scFv: B1 scFv with E32A, V184P
notes: AS170036 VL1VH1 scFv mutein
B7: LD97I (scFv)
scFv: B1 scFv with D97I, V184P
notes: AS170036 VL1VH1 scFv mutein
B8: AS170036 VL1VH1 HP58Y (scFv)
scFv: B1 scFv with V184Y
B9: AS170036 VL1VH1 HP58K (scFv)
scFv: B1 scFv with V184K
B10: AS170036 VL1VH1 HP58Q (scFv)
scFv: B1 scFv with V184Q
B11: AS170036 VL1VH1 HP58T (scFv)
scFv: B1 scFv with V184T
B12: AS170036 VL1VH1 HP58N (scFv)
scFv: B1 scFv with V184N
B13: LD97W (scFv)
scFv: B1 scFv with D97W, V184P
notes: AS170036 VL1VH1 scFv mutein
B14: AS170036 VL1VH1 HW105F (scFv)
scFv: B1 scFv with V184P, W231F
B15: AS170036 VL1VH1 HP110T (scFv)
scFv: B1 scFv with V184P, P236T
B16: AS170036 VL1VH1 HS57Y (scFv)
scFv: B1 scFv with S183Y, V184P
B17: LD97V (scFv)
scFv: B1 scFv with D97V, V184P
notes: AS170036 VL1VH1 scFv mutein
B18: LD97P (scFv)
scFv: B1 scFv with D97P, V184P
notes: AS170036 VL1VH1 scFv mutein
B19: AS170036 VL1VH1 HP109A (scFv)
scFv: B1 scFv with V184P, P235A
B20: AS170036 VL1VH1 HW105M (scFv)
scFv: B1 scFv with V184P, W231M
B21: LE32I (scFv)
scFv: B1 scFv with E32I, V184P
notes: AS170036 VL1VH1 scFv mutein
B22: AS170036 VL1VH1 HS57W (scFv)
scFv: B1 scFv with S183W, V184P
B23: LD97Q (scFv)
scFv: B1 scFv with D97Q, V184P
notes: AS170036 VL1VH1 scFv mutein
B24: AS170036 VL1VH1 HP110V (scFv)
scFv: B1 scFv with V184P, P236V
B25: AS170036 VL1VH1 HS57A (scFv)
scFv: B1 scFv with S183A, V184P

Assays:
[1] = target: T1, AFP158/HLA-A*02:01 complex (human); test: SPR; vs AS170036 VL1VH1;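 further: crude scFv captured on sensor chip, peptide–HLA complex flowed over at several concentrations, KD estimated from association and dissociation kinetic rates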
T1 construct: biotinylated on the BSP by BirA for ELISA and panning; also called biotinylated AFP158/HLA-A*02:01 complex; Bio-AFP158

[2] = target: T1, AFP158/HLA-A*02:01 complex; test: SPR, crude scFv captured;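 further: Peptide–MHC complex flowed at several concentrations over sensorchip-captured scFv, Kd derived from on- and off-rates obtained from the association and dissociation curves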
Description: (§1) The experiment was carried out as follows. The crude scFv protein were captured onto the sensorchip. Different concentrations (320, 160, 40 nM) of AFP158/HLA-A*02:01 complex flowed over the sensorchip surface, and were allowed to bind the antibody fragment for 100 s followed by injection of the running buffer to allow dissociation of the complex. On-rate (kd) and off-rate (kd) were calculated based on association and dissociation curve, and were used to estimate the equilibrium dissociation constant (KD).

[3] = target: T2, AFP158/HLA-A*02:01 complex (human); test: SPR, scFv captured, pMHC in flow;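 further: complex injected at several concentrations over crude scFv, association then running-buffer dissociation, KD estimated from kinetic on- and off-rate constants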
T2 construct: flowed over the chip in SPR; also called AFP158 pro
Description: as §1

[4] = target: T2, AFP158/HLA-A*02:01 complex; test: SPR, KD ratio to AS170036 VL1VH1;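 further: crude scFv captured on a sensor chip, peptide–HLA complex passed over at several concentrations, association then buffer dissociation, KD derived from on- and off-rates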
Description: as §1

Row | Binder | Affinity increase [1] [fold] | Kd [2] [nM] | Kd [3] [nM] | Affinity increase [4] [fold]
1 | B1 | 0.2 | 1200 |  | 
2 | B2 | 0.2 | 1200 |  | 
3 | B3 | 0.2 | 1200 |  | 
4 | B4 |  |  | 640 | 0.4
5 | B5 | 0.2 | 1200 |  | 
6 | B6 |  |  | 700 | 0.3
7 | B7 |  |  | 650 | 0.4
8 | B8 | 0.1 | 3500 |  | 
9 | B9 | 0.3 | 860 |  | 
10 | B10 | 0.5 | 500 |  | 
11 | B11 | 0.4 | 750 |  | 
12 | B12 | 0.2 | 1500 |  | 
13 | B13 |  |  | 570 | 0.4
14 | B14 | 0.2 | 1400 |  | 
15 | B15 | 1.3 | 180 |  | 
16 | B16 | 1.2 | 200 |  | 
17 | B17 |  |  | 660 | 0.4
18 | B18 |  |  | 790 | 0.3
19 | B19 | 0.1 | 2700 |  | 
20 | B20 | 0.2 | 1200 |  | 
21 | B21 |  |  | 860 | 0.3
22 | B22 | 0.6 | 380 |  | 
23 | B23 |  |  | 580 | 0.4
24 | B24 | 0.6 | 400 |  | 
25 | B25 | 1.2 | 210 |  | 
